According to US5563039, “TNF receptor-associated intracellular signaling proteins and methods of use” (Tularik, Inc., dated 1996):

Assays:
[1] = target: cytoplasmic domain of Fas antigen expressed as GAL4bd chimera (yeast, UniProt P04386); assay: yeast two-hybrid, strain SFY526
[2] = target: GST fusion protein containing the cytoplasmic domain of Fas antigen (Homo sapiens (Human), UniProt P25445); assay: GST pull-down of 35S-labeled TRADD

Row | binding result [1] | binding result [2] | Binder
1 | no binding |  | GAL4ad-TRADD (GAL4 activation domain fused to full length TRADD) (other) MAAGQNGHEEWVGSAYLFVESSLDKVVLSDAYAHPQQKVAVYRALQAALAESGGSPDVLQMLKIHRSDPQLIVQLRFCGRQPCGRFLRAYREGALRAALQRSLAAALAQHSVPLQLELRAGAERLDALLADEERCLSCILAQQPDRLRDEELAELEDALRNLKCGSGARGGDGEVASAPLQPPVPSLSEVKPPPPPPPAQTFLFQGQPVVNRPLSLKDQQTFARSVGLKWRKVGRSLQRGCRALRDPALDSLAYEYEREGLYEQAFQLLRRFVQAEGRRATLQRLVEALEENELTSLAEDLLGLTDPNGGLA
2 |  | no binding | 35S-labeled TRADD prepared by in vitro transcription and translation (other, 35S-labeled) MAAGQNGHEEWVGSAYLFVESSLDKVVLSDAYAHPQQKVAVYRALQAALAESGGSPDVLQMLKIHRSDPQLIVQLRFCGRQPCGRFLRAYREGALRAALQRSLAAALAQHSVPLQLELRAGAERLDALLADEERCLSCILAQQPDRLRDEELAELEDALRNLKCGSGARGGDGEVASAPLQPPVPSLSEVKPPPPPPPAQTFLFQGQPVVNRPLSLKDQQTFARSVGLKWRKVGRSLQRGCRALRDPALDSLAYEYEREGLYEQAFQLLRRFVQAEGRRATLQRLVEALEENELTSLAEDLLGLTDPNGGLA
